Paper PMC9933118 (Proceedings of the National Academy of Sciences of the …, 2023)
Where a chain is given by its changes, count along the chain named. Names may count otherwise.

What was measured:
[1] = molecular target: BCL11A ZF456 (residues 737 to 835) (Homo sapiens, UniProt Q9H165, 15N-labelled in the NMR experiment)
[2] = molecular target: biotinylated ZF456 protein (BCL11A) (Homo sapiens, UniProt Q9H165, biotin (site not stated)); experiment: AlphaScreen or HTRF
GST-ZF456 = GST-ZF456 (Homo sapiens, UniProt Q9H165); experiment: pull-down
ZF456 of BCL11B = ZF456 of BCL11B (Homo sapiens (assumed, as for BCL11A), UniProt Q9C0K0); experiment: AlphaScreen or HTRF
Twin-Strep-tagged ZF456 = Twin-Strep-tagged ZF456 (Homo sapiens, UniProt Q9H165); experiment: SPR
Chain of Twin-Strep-tagged ZF456 (Q9H165 737-835): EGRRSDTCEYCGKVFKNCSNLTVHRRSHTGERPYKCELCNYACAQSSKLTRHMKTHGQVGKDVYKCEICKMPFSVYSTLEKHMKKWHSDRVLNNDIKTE

Chain of biotinylated ZF456 protein (BCL11A) (Q9H165 737-835): as above
Chain of BCL11A ZF456 (residues 737 to 835) (Q9H165 737-835): as above
Chain of GST-ZF456 (Q9H165 737-835): as above
Chain of ZF456 of BCL11B (Q9C0K0 whole entry, looked up, tested part not stated): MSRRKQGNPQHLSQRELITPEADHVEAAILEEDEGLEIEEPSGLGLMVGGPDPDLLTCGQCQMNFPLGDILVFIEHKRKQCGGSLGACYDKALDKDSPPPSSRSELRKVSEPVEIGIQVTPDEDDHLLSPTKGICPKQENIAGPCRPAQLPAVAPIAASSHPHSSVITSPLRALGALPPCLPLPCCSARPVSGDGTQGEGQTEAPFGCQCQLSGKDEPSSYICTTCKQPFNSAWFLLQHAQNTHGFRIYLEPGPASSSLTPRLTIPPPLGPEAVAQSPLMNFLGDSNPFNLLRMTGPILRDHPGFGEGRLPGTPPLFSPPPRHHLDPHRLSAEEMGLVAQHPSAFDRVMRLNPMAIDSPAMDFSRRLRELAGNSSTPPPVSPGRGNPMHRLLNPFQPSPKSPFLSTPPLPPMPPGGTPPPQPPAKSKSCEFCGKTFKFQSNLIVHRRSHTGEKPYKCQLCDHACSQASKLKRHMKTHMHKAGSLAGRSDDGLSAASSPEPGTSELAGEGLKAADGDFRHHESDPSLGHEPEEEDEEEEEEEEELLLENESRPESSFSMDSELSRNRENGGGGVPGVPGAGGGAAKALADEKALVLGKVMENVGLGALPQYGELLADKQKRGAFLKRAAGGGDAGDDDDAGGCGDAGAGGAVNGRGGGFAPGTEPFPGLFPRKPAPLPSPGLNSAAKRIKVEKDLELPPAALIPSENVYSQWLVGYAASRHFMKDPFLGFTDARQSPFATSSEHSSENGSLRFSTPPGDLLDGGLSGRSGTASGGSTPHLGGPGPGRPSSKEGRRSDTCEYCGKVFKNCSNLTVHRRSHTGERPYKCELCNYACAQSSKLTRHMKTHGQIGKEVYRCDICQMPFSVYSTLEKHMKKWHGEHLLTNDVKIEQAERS

B1: Nb5344 (VHH)
VHH: SGGGLVQAGDSLRLSCAASGSTFSGYAMGWYRQAPGKERELVAAITSSGASTYYADSVRGRFTISRDNAKNTVYLQMNSLKPEDTAVYYCAALDEGYLDYDSWGQGTQVTVSS
Kd [1]: 3420 ± 80 nM

B2: Nb5344(N74D) (VHH)
VHH: B1 VHH with N68D
Kd [1]: 1200 ± 50 nM

B3: Nb6101-14 (VHH)
VHH: RVQLVESGGGLVQAGGSLRLSCAADGFDFSSYAMGWYRQAPGYEDELVAAITASGSYTYYSDSVKGRFTISRDNAKNTVYLQMNSLKPEDTAVYYCAALSYVAEGYWGQGTQVTVSS
Kd [2]: 26.7 ± 0.7 nM

B4: Nb6101-22 (VHH)
VHH: B3 VHH with V2M, Y43R, E89D
Kd [2]: 54.6 ± 0.9 nM

B5: Nb6101-20 (VHH)
VHH: B3 VHH with S30K
Kd [2]: 77.2 ± 0.5 nM

B6: Nb6101-19 (VHH)
VHH: B3 VHH with S30K, Y43R, S56D, S61A, E89D
Kd [2]: 21.9 ± 0.4 nM

B7: Nb61 (VHH)
VHH: QVQLVESGGGLVQAGGSLRLSCAASGFIFDSYAMGWYRQAPGKERELVAAITSSGSSTYYADSVKGRFTISRDNAKNTVYLQMNSLKPEDTAVYYCAALDYVIDGYWGQGTQVTVSS
binding result (GST-ZF456): binds

B8: Nb6101 (VHH)
VHH: B7 VHH with Q1R, R45M
binding result (ZF456 of BCL11B): no binding

B9: Nb6101(M45D) (VHH)
VHH: B7 VHH with Q1R, R45D
Kd (Twin-Strep-tagged ZF456): 157 ± 9 nM | fold improvement of binding affinity against Nb6101 (Twin-Strep-tagged ZF456): ~6 fold
